Source: publication PMC3565967, “Biochemical Similarities and Differences between the Catalytic [4Fe-4S] Cluster Containing Fumarases FumA and FumB from Escherichia coli” (PLoS ONE, 2013)

B1: Fumarase B (FumB) from Escherichia coli (enzyme, E. coli, UniProt P14407 1-548, looked up)
chain: MSNKPFIYQAPFPMGKDNTEYYLLTSDYVSVADFDGETILKVEPEALTLLAQQAFHDASFMLRPAHQKQVAAILHDPEASENDKYVALQFLRNSEIAAKGVLPTCQDTGTAIIVGKKGQRVWTGGGDEETLSKGVYNTYIEDNLRYSQNAALDMYKEVNTGTNLPAQIDLYAVDGDEYKFLCVAKGGGSANKTYLYQETKALLTPGKLKNFLVEKMRTLGTAACPPYHIAFVIGGTSAETNLKTVKLASAHYYDELPTEGNEHGQAFRDVQLEQELLEEAQKLGLGAQFGGKYFAHDIRVIRLPRHGASCPVGMGVSCSADRNIKAKINREGIWIEKLEHNPGQYIPQELRQAGEGEAVKVDLNRPMKEILAQLSQYPVSTRLSLTGTIIVGRDIAHAKLKELIDAGKELPQYIKDHPIYYAGPAKTPAGYPSGSLGPTTAGRMDSYVDLLQSHGGSMIMLAKGNRSQQVTDACHKHGGFYLGSIGGPAAVLAQQSIKHLECVAYPELGMEAIWKIEVEDFPAFILVDDKGNDFFQQIVNKQCANCTK
notes: FumB, class I [4Fe-4S] fumarase of E. coli; the gene from plasmid pGS56 was cloned into pET15b; After nickel column purification the enzyme held [3Fe-4S] clusters in only 10-25% of the protein, the rest being apoprotein; also called fumarate hydratase class I, anaerobic; source: E. coli BL21(DE3), pET15b-FumB, purified (nickel sepharose column)
B2: FumA (Escherichia coli K-12) (protein)
chain: SNKPFHYQAPFPLKKDDTEYYLLTSEHVSVSEFEGQEILKVAPEALTLLARQAFHDASFMLRPAHQQQVADILRDPEASENDKYVALQFLRNSDIAAKGVLPTCQDTGTAIIVGKKGQRVWTGGGDEAALARGVYNTYIEDNLRYSQNAPLDMYKEVNTGTNLPAQIDLYAVDGDEYKFLCIAKGGGSANKTYLYQETKALLTPGKLKNYLVEKMRTLGTAACPPYHIAFVIGGTSAETNLKTVKLASAKYYDELPTEGNEHGQAFRDVELEKELLIEAQNLGLGAQFGGKYFAHDIRVIRLPRHGASCPVGMGVSCSADRNIKAKINRQGIWIEKLEHNPGKYIPEELRKAGEGEAVRVDLNRPMKEILAQLSQYPVSTRLSLNGTIIVGRDIAHAKLKERMDNGEGLPQYIKDHPIYYAGPAKTPEGYASGSLGPTTAGRMDSYVDQLQAQGGSMIMLAKGNRSQQVTDACKKHGGFYLGSIGGPAAVLAQGSIKSLECVEYPELGMEAIWKIEVEDFPAFILVDDKGNDFFQQIQLTQCTRCVK

Key:
FumB = molecular target: T1, FumB (Escherichia coli, UniProt P14407); assay: fumarate depletion at […] nm, Michaelis-Menten fit; type: biochemical; details: anaerobic, 100 mM EPPS pH 8, 5% glycerol, 0.5 mM DTT, 37 °C; regenerated [4Fe-4S] enzyme
T1 construct: full length, N-terminal His-tag (pET15b, gene from plasmid pGS56), expressed in E. coli BL21(DE3); [4Fe-4S] cluster regenerated with Fe2+ and L-cysteine; homodimer circa 120 kDa

FumA = FumA (Escherichia coli, UniProt P0AC33); assay: fumarate depletion at […] nm, Michaelis-Menten fit; type: biochemical; details: anaerobic, 100 mM EPPS pH 8, 5% glycerol, 0.5 mM DTT, 37 °C; regenerated [4Fe-4S] enzyme
purified protein [1] = substrate: O=C(O)C(O)C(O)C(=O)O; assay: purified protein; details: anaerobic, 100 mM EPPS pH 8, 5% glycerol, 0.5 mM DTT, 100 µM NADH, 1 mM MgCl2, 37 °C, regenerated [4Fe-4S] enzyme
purified protein [2] = substrate: O=C(O)C[C@H](O)C(=O)O; assay: purified protein; details: anaerobic, 100 mM EPPS pH 8, 5% glycerol, 0.5 mM DTT, 37 °C, regenerated [4Fe-4S] enzyme
[3] = molecular target: the molecule itself; assay: SEC; Superdex 200, to estimate the molecular weight of the native enzyme; data not shown

| Molecule | Km (FumB) [µM] | Km (FumA) [µM] | Km (purified protein [1]) [µM] | Vmax (purified protein [1]) | kcat/Km (purified protein [1]) | Km (purified protein [2]) [µM] | Vmax (purified protein [2]) | kcat/Km (purified protein [2]) | stoichiometry N [3] |
| --- | --- | --- | --- | --- | --- | --- | --- | --- | --- |
| O=C(O)/C=C/C(=O)O [fumarate] | 320 ± 40 | 460 ± 80 | – | – | – | – | – | – | – |
| B1 | – | – | 800 ± 100 | 9.2±0.4 umol product/minute/mg enzyme | (12±2)⋅10^3 s^-1 M^-1 | 300 ± 70 | (4.9±0.3)·10^2 umol product/minute/mg enzyme | (1.6±0.4)⋅10^6 s^-1 M^-1 | 2 |
| B2 | – | – | 800 ± 300 | 2.3±0.3 umol product/minute/mg enzyme | (3±1)⋅10^3 s^-1 M^-1 | 700 ± 100 | (7.2±0.4)·10^2 umol product/minute/mg enzyme | (1.0±0.2)⋅10^6 s^-1 M^-1 | – |
